Laboratory results published in publication PMC6677171 (2019).

Biological target: Mis16 (S. pombe), full length, affinity tag removed (S. pombe, UniProt O94244 1-430)
Experiment: ITC

Chain of Mis16 (S. pombe), full length, affinity tag removed (O94244 whole entry): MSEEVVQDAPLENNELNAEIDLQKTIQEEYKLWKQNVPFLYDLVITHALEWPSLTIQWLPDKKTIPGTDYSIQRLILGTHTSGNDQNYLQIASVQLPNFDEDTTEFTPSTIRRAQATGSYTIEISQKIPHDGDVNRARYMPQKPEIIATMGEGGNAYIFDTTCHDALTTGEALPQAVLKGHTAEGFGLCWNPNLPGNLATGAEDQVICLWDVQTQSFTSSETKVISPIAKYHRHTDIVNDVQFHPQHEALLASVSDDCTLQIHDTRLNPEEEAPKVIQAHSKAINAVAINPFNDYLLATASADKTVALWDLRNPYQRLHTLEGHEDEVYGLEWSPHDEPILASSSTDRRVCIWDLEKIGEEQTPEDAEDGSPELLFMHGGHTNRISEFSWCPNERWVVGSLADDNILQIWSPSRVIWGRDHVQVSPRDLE

Kd: > 1 µM
Binder: LHNRVFLRANVRAVKM [Mis19 C-terminal peptide (residues 97–112) R105A]
